The IC50 is the point on the concentration scale where inhibition reaches its midpoint. The low end stands for inhibition by little substance, the high end for a need for much substance.

The values below come from patent publication US20080058272A1 (published 2008).

The labels stand for the following.
T1: HLA-A2 (human, UniProt P04439 25-302 at identity 0.94))
T1 chain: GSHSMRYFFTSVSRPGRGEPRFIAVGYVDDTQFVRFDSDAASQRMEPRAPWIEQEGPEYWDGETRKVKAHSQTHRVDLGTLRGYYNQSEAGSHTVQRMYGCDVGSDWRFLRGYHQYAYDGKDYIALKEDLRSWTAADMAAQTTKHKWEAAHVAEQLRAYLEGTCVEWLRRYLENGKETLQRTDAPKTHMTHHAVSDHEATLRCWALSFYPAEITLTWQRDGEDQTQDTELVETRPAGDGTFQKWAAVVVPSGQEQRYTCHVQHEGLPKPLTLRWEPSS

One test concerns the target T1, HLA-A2. In words: competitive binding assay (flow cytometry).
Consider GLFKCGIAV [FAPα^639-647], for which the half-maximal inhibitory concentration (IC50) amounted to 5.6 µM. In turn, KILEENKEL [FAPα^486-494] had an IC50 of 33.8 µM. GLSPDRQFV [FAPα^104-112] came in with an IC50 of 9.1 µM. This IC50 lies about 3.7-fold lower than the previous one. ALVCYGPGI [FAPα^463-471]: the IC50 was 4.7 µM. In turn, LLYAVYRKL [FAPα^584-592] displayed an IC50 of 13.3 µM. Turning to YLASKEGMV [FAPα^560-568], the half-inhibitory concentration (IC50) is 15.3 µM. On the same count and under the same terms, the same measure for YLESDYSKL [FAPα^113-121]: 8 µM.

The target of the next test is T1, HLA-A2. As to the kind of experiment: competitive binding assay (flow cytometry). The source holds these as a separate data set. (In flow cytometry, cells or beads pass a laser one at a time.)
KILEENKEL [FAPα^486-494] yielded an IC50 of 33.8 µM. This lies in the double-digit micromolar range.

Molecule ALVCYGPGI [FAPα^463-471] registered an IC50 of 4.7 µM.
